# T1: RIG-I (ΔCARDs) (human, UniProt O95786 230-925, del1-229)
# T1 sequence: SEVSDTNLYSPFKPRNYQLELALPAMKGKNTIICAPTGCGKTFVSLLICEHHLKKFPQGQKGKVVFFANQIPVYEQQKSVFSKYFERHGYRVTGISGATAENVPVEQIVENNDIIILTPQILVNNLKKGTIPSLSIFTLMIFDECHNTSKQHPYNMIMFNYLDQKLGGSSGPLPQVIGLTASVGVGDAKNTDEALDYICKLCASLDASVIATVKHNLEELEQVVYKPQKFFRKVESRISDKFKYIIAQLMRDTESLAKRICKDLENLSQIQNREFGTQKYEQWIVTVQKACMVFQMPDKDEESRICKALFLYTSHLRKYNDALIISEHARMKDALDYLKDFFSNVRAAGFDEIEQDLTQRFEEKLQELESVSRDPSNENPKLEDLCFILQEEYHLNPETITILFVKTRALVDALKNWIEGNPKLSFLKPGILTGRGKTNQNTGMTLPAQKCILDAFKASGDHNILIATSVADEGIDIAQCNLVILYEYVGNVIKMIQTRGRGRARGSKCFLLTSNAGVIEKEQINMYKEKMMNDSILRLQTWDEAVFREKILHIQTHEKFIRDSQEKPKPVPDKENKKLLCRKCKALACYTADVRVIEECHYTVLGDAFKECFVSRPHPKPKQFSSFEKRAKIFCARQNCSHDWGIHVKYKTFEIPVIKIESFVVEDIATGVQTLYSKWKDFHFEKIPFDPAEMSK
# Molecular target: T1, RIG-I (ΔCARDs)
# Assay: X-ray crystallography
binder,measurement,value
dsRNA10 (5'OH palindromic 10-mer duplex) (dsRNA) RNA 1: GCGCGCGCGC RNA 2: GCGCGCGCGC,binding result,binds

# Reference: publication PMC3222294
